# “And” between values parts separate entries of the source, which are not always exact repeats. Equal entries are not always repeated.
# T1: human FSH receptor (human, UniProt P23945 18-695)
# T1 sequence (looked up): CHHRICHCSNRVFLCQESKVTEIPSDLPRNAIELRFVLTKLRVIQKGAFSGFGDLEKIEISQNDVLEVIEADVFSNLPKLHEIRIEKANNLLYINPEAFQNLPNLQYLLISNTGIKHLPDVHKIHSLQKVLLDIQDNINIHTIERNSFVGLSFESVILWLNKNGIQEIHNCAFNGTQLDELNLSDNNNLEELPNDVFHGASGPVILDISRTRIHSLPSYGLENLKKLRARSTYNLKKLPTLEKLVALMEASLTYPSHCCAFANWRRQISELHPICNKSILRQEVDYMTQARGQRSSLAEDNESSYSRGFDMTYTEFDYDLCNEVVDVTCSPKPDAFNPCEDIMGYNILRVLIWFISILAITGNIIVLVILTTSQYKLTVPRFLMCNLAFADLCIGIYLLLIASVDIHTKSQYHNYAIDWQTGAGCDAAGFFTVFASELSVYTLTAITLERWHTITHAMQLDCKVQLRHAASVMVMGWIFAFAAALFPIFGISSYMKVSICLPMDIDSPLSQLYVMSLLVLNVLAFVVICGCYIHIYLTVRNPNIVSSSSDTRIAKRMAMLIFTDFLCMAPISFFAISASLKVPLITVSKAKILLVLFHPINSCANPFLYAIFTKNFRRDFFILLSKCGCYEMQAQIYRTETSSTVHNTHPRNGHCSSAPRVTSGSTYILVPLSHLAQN
# B1: FSH single β-subunit mutant β E55N/V57T (mutant β-subunit expressed together with the complementary wild type α-subunit) (ligand)
# chain 1: not shown
# chain 2: NSCELTNITIAIEKEECRFCISINTTWCAGYCYTRDLVYKDPARPKIQKTCTFKNLTYETVRVPGCAHHADSLYTYPVATQCHCGKCDSDSTDCTVRGLGPSYCSFGEMKE
# modifications: N-linked glycosylation; extra consensus site at N55 (hyperglycosylated by shift of apparent molecular weight); N-linked glycosylation (glycoprotein made in CHO cells)
# notes: also called βE55/V57T
# B2: GM-1 (FSH double glycosylation mutant: α-subunit H83N and β-subunit E55N/V57T) (ligand)
# chain 1: not shown
# chain 2: NSCELTNITIAIEKEECRFCISINTTWCAGYCYTRDLVYKDPARPKIQKTCTFKNLTYETVRVPGCAHHADSLYTYPVATQCHCGKCDSDSTDCTVRGLGPSYCSFGEMKE
# modifications: N-linked glycosylation (glycoprotein made in CHO-Dukx cells)
# notes: Heterodimer; also called GM-1 Lot 1; GM-1 Lot 2
# Tests used:
# human FSH receptor [1] = target: T1, human FSH receptor; assay: cell-based or functional assay
# human FSH receptor [2] = target: T1, human FSH receptor; assay: competition with 125I radiolabelled FSH on membrane preparations with human FSH receptor
# human FSH receptor [3] = target: T1, human FSH receptor; assay: cell-based or functional assay; remark: listed apart in the source
# human FSH receptor [4] = target: T1, human FSH receptor; assay: competition with 0.4 nM 125I-FSH on CHO membranes bearing human FSHR, filtration, single site model
# Procedure: Large batches of CHO cells line which recombinantly express human FSH receptor or human LH receptor were grown and disrupted by nitrogen cavitation (20 min equilibration to 900 psi, followed by rapid pressure release) in 0.025 M Tris pH 7.4 containing 0.25 M sucrose, 10 mM MgCl₂, 1 mM EDTA and one part per thousand Sigma Protease Inhibitor cocktail (p8350). Following preliminary clarification (10 min×1000×g at 4° C.) the membranes fraction was pelletted (60 min×100,000×g×4° C.) by ultracentrifugation. The membranes fraction was resuspended in binding buffer (0.01 M Tris pH 7.4 containing 5 mM MgCl₂), protein concentration estimated by Bradford (BioRad) protein assay and stored frozen at −80° C. for future use. Typically 15 μg of membrane protein appropriately bearing FSHR or LHR was analyzed, per well, in competition assays.
# Radioligand binding was evaluated in 96 well plates, 100 μl/sample well. The assay buffer was 0.01 M Tris pH 7.4 containing 5 mM MgCl₂ and 0.1% BSA and 0.3 nM ¹²⁵I-hCG (for LHR) or 0.4 nM ¹²⁵I-FSH (for FSHR). […] Nonspecific binding was determined in the presence of 500 nM unlabeled hCG or FSH. Binding was allowed to equilibrate for 90 min at 37° C. with shaking. […] Bound radioactivity was measured in an HP Cobra II gamma counter using a pre-programmed detection window specific for ¹²⁵I emission. Data were analyzed using a single site model and Graph Pad Prizm software.
binder,measurement,setting,value
B1,EC50 (FSHR-coupled cAMP production),human FSH receptor [1],39 pM
same,Ki,human FSH receptor [2],860 pM
B2,FSHR EC50 (cAMP production),human FSH receptor [3],61.2 pM and 20.9 pM
same,Ki,human FSH receptor [4],1900 pM and 2300 pM

# Reference: patent US20050100989A1 (MERCK SERONO, published 2005)
